The series is described as follows: yeast display, Sf9 membrane polyspecificity reagent, FACS + sequencing; frameworks hold sequencing errors. Put shortly:
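Polyreactivity labels are assigned by the sorting gate from which each nanobody was recovered. The gates were low and high (top ~1%), set on anti-HA fluorescence for expression and streptavidin fluorescence for reagent binding. Before sorting, galactose-induced (36–48 hours) yeast display cells were stained for 1 hour at 4 °C with 10% biotinylated, detergent-solubilized Sf9 membrane reagent.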
With “QVQLVESGGRVLQAGGSLRLSCAASGRIFSYNDMGWYRQAPGKERELVATITSGDSTISADSVKGRFTISRDNAKNTVYLQMNSLKPEDTAVYYCATDIYGLPVDYWGQGTQVTVSS”, the “polyreactivity (PSR sort gate)” value was “low polyreactivity”.

Turning to “QVQLVESGGSLVQAGGSLRLSCAASGRIFITNAMGAYRQAPGKERELVAAIRRRGGNTYYADSVKGRFTISRDNAKNTVYLQMNSLKPEDTAVYYCAVYPRPYKYNYWGQGTQVTVSS”, the “polyreactivity (PSR sort gate)” value is “high polyreactivity”.

As for “QVQLVESGGSLVQAGGSLRLSCDASGRTFGTNAMGWYRQAPRKETELVAAISWRGTSTYYADSVKGRFTNSRDNAKNTVYLQMNSLKPEDTAVYYCAARGYRADQWEYDYWGQGTQVTVSS”, the “polyreactivity (PSR sort gate)” value is “low polyreactivity”.

On to “QVQLVESGGSLVQAGGSLRLSCDASVLTFPVYAMGWYRQAPGKEREFVASISGRGASTYYADSVKGRFTISRDNAKNTVYLQMNSLIPEDTAVYYCNADVWLLSYFPEYDYWGQGNQVTVSS”, for which the “polyreactivity (PSR sort gate)” value is listed as “low polyreactivity”.

In the case of “QVQLVESGGVIVQAGGSLRLSCAATGSNFWSYAMGSSRPAPGKERELVASITRSGGSTYYADSVKGRFTISRDNAKNTVYSQMNSLKPEDTAVYYCNARRTTRWGSSKYEYDYWGQGTQVTVSS”, the “polyreactivity (PSR sort gate)” value is “high polyreactivity”.

For “QVQLVESGGVLDQAGGSLGLSCAASGRTLRKYAMGWYRQAPGKERELVAAITWTGGTTYYADSVKGRFTISRDNAKNTVYLQMNTLKPEDTAFYFCGTVRRYGYGYDYWGQGTQVTVSS”, the “polyreactivity (PSR sort gate)” value is “high polyreactivity”.

Take “QVQLVESGGVLVQAGGSLLLSCAASGFTFGCYGMGWYRQARGKERELGAAITKSGGRTYYADSVKGRFTISRDNAKNTVYLQMNSLLREDTAVYYCAASSQGDGGYWGQGSQVTVSS”: the “polyreactivity (PSR sort gate)” value is “high polyreactivity”.

Take “QVQLVESGGVLVQAGGSLRITCAASGHIFFYDTMGWYRQAPGKERELVAGITIGGSTNYADSVKGRFTISRDNAKNTVSLQMNSLKPEDTAVYFCNVVKYVYIYSYWEYYYWGQCTQVTVSS”: the “polyreactivity (PSR sort gate)” value is on record as “low polyreactivity”.

For the sequence “QVQLVESGGVLVQAGGSLRLICAASGSIFNRYAMGWYRHAPGKDRELVAAISRSGGRTYYADSVKGRFTISRDNAKNTVYLQMNSLKPEDTAVYYCAADKYYRQHEYDYWGQGTQVTVSS”, the “polyreactivity (PSR sort gate)” value is listed as “high polyreactivity”.

As to “QVQLVESGGVLVQAGGSLRLICAASVFTFYSYAIGWYRQATGTERELVAGISRSGGSTYYADSVKGRFTISRDNAKNTVYLHMNRLKPEDTAVYYCNVRLRKKIQNSKYDYWGQGTQVSVSS”, the “polyreactivity (PSR sort gate)” value is listed as “high polyreactivity”.

Take “QVQLVESGGVLVQAGGSLRLSCAASGFTFSLYGMGWYRQAPGKEREFVAAIRSGGSTNYADSVKGRFTISRDNAKNTVYLQMNRLKPEDTAVYYCATDIHSVHNNRDKHDYDYWGQGTQVTVSS”: the “polyreactivity (PSR sort gate)” value is on record as “low polyreactivity”.

As for “QVQLVESGGVLVQAGGSLRLSCAASGGIFQGNVMGWYRQAPGKERELVASIRRGGSTNYADSVKGPFTISRDNAKNTVYLQMNSLKPEDTAVYYCNAAFYKEYYYWGQGTQVTVSS”, the “polyreactivity (PSR sort gate)” value was “low polyreactivity”.

As for “QVQLVESGGVLVQAGGSLRLSCAASGITLTANAMGWYRQAPGKERELVAAISRGGSKYYADSVKGRFTISRDNAKNPGYLQMNSLKPEDTAVYYCNKAGGYWYAKRDYDYWGQVTQVTVSS”, the “polyreactivity (PSR sort gate)” value was “high polyreactivity”.

For “QVQLVESGGVLVQAGGSLRLSCAASGLDYYAIGWYRQAPGKERELVAAIDWSGVSTYYADSVKGRFTISRDNAKNTVYLQMNSLKPEDTAVDYCAALYYGWPRVSYGLGEYGYWGQGTQVTVSS”, the “polyreactivity (PSR sort gate)” value is listed as “low polyreactivity”.

For “QVQLVESGGVLVQAGGSLRLSCAASGNIFDQNAMGWYRQAPGKERELVAAITRSGSTTYYADSVKGRFTISRDNAKNTVYLQMNSLNPEDTAVYYCAAKVYAYRTYKMYYWGQGTQVTVSS”, the “polyreactivity (PSR sort gate)” value is “high polyreactivity”.

Regarding “QVQLVESGGVLVQAGGSLRLSCAASGRIFAYYTMGWYRQAPGKEREMVAAISLSGSSTYYADSVKGRFTISRDNAKNNVYLHMNSLKPEDTAVYYCNADSYAYYSWYDYWGQGTQVTVSS”, the “polyreactivity (PSR sort gate)” value was “low polyreactivity”.

For “QVQLVESGGVLVQAGGSLRLSCAASGRIFDYYAMGWYRKAPGKERELVAAITSGGTTTYYADSVKGRFTISRDNAKNTVYLQMKSLKPEDTAVYYCAKYPYHIYHTEGDYWGQATQVTVSS”, the “polyreactivity (PSR sort gate)” value is on record as “low polyreactivity”.

With “QVQLVESGGVLVQAGGSLRLSCAASGRIFSIYGMGWYRQAPVKEREFVASITYSGGSTYNADSVKGRFTISRDTAKNTVYLQMKSLKPEDTAVYYCAKYVFSAYDYWGQGTQVTVSS”, the “polyreactivity (PSR sort gate)” value is listed as “low polyreactivity”.

Take “QVQLVESGGVLVQAGGSLRLSCAASGRIFSNYAMGWYRQAPGKEWELVATIRKGGGSTYYADSVKGRFTISRDNAKNTVYLQMNSLKPEDTAVYYCAADGSLQTRRFDYWGQGTQVTVSS”: the “polyreactivity (PSR sort gate)” value was “high polyreactivity”.

For the sequence “QVQLVESGGVLVQAGGSLRLSCAASGRIFSSNAMGWYRHAPGKESEFVADISWRTGSTYYADSVKGRFTISRDNAKNTVYLQMNSLKPEDTAVYYCKKRTGSYGYPYYYWGQGTQVTVSS”, the “polyreactivity (PSR sort gate)” value is “high polyreactivity”.

Take “QVQLVESGGVLVQAGGSLRLSCAASGRIFTRNAMGWYRQAPGKERELVASITRGGSTYYADSVKGRFTISRDNAKITVYLQMNCLKAEDTALYYCAAVFYDRGQRYNYWGQGTQVTVSS”: the “polyreactivity (PSR sort gate)” value is listed as “high polyreactivity”.

“QVQLVESGGVLVQAGGSLRLSCAASGRTFGGNVMAWYRQAPGKERELVAAISYSGGSTHYADSVKGRFTNSRDNAKNTVYLQMNSLKPEDTAVYYCAKDGEVTGDYWGLGTQVTVSS”: the “polyreactivity (PSR sort gate)” value is “low polyreactivity”.

Regarding “QVQLVESGGVLVQAGGSLRLSCAASGRTFRYYAMGWYRQAPGKERELVAAITVTVTSTFYADSVKGRFTISRDNAKNTVYLQMNSLKPEDTAVYYCAKVDRQSPGQYYYWGQGTQVTVSS”, the “polyreactivity (PSR sort gate)” value is given as “low polyreactivity”.

Regarding “QVQLVESGGVLVQAGGSLRLSCAASGRTFWYNAMGWYRQAPGKEWELVAAISSTGGRTYYADSVKGRFTISRDNAKTTVYLQMNSLKPEDTAVYYCAARQLSSHYDYWGQGTQVTVSS”, the “polyreactivity (PSR sort gate)” value is “low polyreactivity”.

For the sequence “QVQLVESGGVLVQAGGSLRLSCAASGRTFYLYAMGWYRHAPGKERELVAAISWSDDTTYYADSVKGRFTISRDNAKNTVYLQRNSLKPEDTAVYYCAAEQEQVALYDYWGQGTQVTVSS”, the “polyreactivity (PSR sort gate)” value is “high polyreactivity”.

With “QVQLVESGGVLVQAGGSLRLSCAASGRTIWYYAMGWYRQAPGKERELVASITRSGGTTYADSVKGRFTISRDNAKNTVYLQMNSLKPEDTAVYYCAATRPRIPVYQNNYGYWGQGTQLTVSS”, the “polyreactivity (PSR sort gate)” value is listed as “high polyreactivity”.

As to “QVQLVESGGVLVQAGGSLRLSCAASGRTLGTYAMGWYRQAPGKERELVAAITHSGGTTYYADSVKGRFTISRDNAKNTVYLQMNSLKPEDTAVYYCAADARFRTVSPMDYWGQGTQVTVSS”, the “polyreactivity (PSR sort gate)” value is on record as “low polyreactivity”.

In the case of “QVQLVESGGVLVQAGGSLRLSCAASGRTYGTYAMGWYRQAPGKERELVAGINGSGGSTYYADSVKGRFTISRDNAKNTVFLQMNSLKPEDTAVYYCYKYGRRPYGLRGYWGEGTQVTVSS”, the “polyreactivity (PSR sort gate)” value is “high polyreactivity”.

As to “QVQLVESGGVLVQAGGSLRLSCAASGSIFASNAMGWYRQAPGKEREFVAAISWSGTRTYYADSVKGRFTISRDTAKNTVYLQMNSLKPEDTAVYYCAALTVLRNDYWGLGTQVTVSS”, the “polyreactivity (PSR sort gate)” value is recorded as “low polyreactivity”.

Take “QVQLVESGGVLVQAGGSLRLSCAASGSIFDHYAMGWYRQAPGKERELVAAITYSDGSTYYADSVKGRFTISRDNAKNTVFLQMNSLKPEDTAVFYCAAYPRGSQRYNYWGQGTHVTVSS”: the “polyreactivity (PSR sort gate)” value is reported as “high polyreactivity”.

Regarding “QVQLVESGGVLVQAGGSLRLSCAASGSIFEVNSMGWYRQAPGKERELVDTITYSGGSTYYADSVKGRFTLSRDNAKNNVYLQMNSLKPEDTAVYYCATDYVDWELYIYDYWGQGTQVTVSS”, the “polyreactivity (PSR sort gate)” value was “low polyreactivity”.

As to “QVQLVESGGVLVQAGGSLRLSCAASGSIFGTYAMGWYRRAPGKERELVAAITSDGVDTYYADSVKGRFTISRDNAKITVYLQMNSLKPEDTAVYYGAAEYEGLYGYGYWGQGTQVTVSS”, the “polyreactivity (PSR sort gate)” value is given as “high polyreactivity”.

As to “QVQLVESGGVLVQAGGSLRLSCAASGSIFSYNVMGWYRQAQGKEREFVAAITRSGGSTYYADSVKGRFTISRDNAKNTVYLQMNSLKPEDTAVYYCATAYYYTPFREYYYWGQGTQVTVSS”, the “polyreactivity (PSR sort gate)” value was “low polyreactivity”.

As for “QVQLVESGGVLVQAGGSLRLSCAASGSIFYVNTMGWYRQAPGKDRELVADISSGDSTYYADSVKGRFTISRDNAKNTVYLQMNSLKPEDTAVFYCNADVYSWVSGKEGDYWGQGTQVTVSS”, the “polyreactivity (PSR sort gate)” value is “low polyreactivity”.

With “QVQLVESGGVLVQAGGSLRLSCAASGSILSNYAMGWYRQAPGKERELVASISSTAGSTYYADSVKGRFTISRDNCKNTVYLQMNSLKPEDTAVYYSIKVFGGGTYDFWGQGTQVTVSS”, the “polyreactivity (PSR sort gate)” value was “low polyreactivity”.

Turning to “QVQLVESGGVLVQAGGSLRLSCAASGSTFEYNVMGWYRPAPGKERELVAAITTGASTNYADSVKGRFTISRDNAKNTVYLQMNCLKPEDTAVYYCAARYWRVRHGSVPAYSGYDYWGLGTQVTVSS”, the “polyreactivity (PSR sort gate)” value is listed as “low polyreactivity”.

Regarding “QVQLVESGGVLVQAGGSLRLSCAASGSTFGPNAMGWYRQAPGKERELVAAIRSNGGRTYYADSVKGRFTISRDNAKNTVYLQMNSLKPEDTAVYYCAAPHYPYDTPYGYWGQGTQVTVSS”, the “polyreactivity (PSR sort gate)” value is reported as “low polyreactivity”.

Consider “QVQLVESGGVLVQAGGSLRLSCAASGSTFLDYAMGWYRQAPGKERELVAAITSGGSTYYADSVKGRFTISRDNAKNTVDLHMKSMIPEDTAVYYCAADSVTGNAPSLVGDIYYYWGQGTQVTVSS”, for which the “polyreactivity (PSR sort gate)” value is “low polyreactivity”.

As for “QVQLVESGGVLVQAGGSLRLSCAASGSTFLGYAMGWYRQAPGKERELVAAISSGGSTNYADSVKGRFTLSRDNAKNTVYLQMNSLKPDDTAVYYCGARTRRFRYYYWGQGPQVTVSS”, the “polyreactivity (PSR sort gate)” value is listed as “high polyreactivity”.

Turning to “QVQLVESGGVLVQAGGSLRLSCAASGSTFRRYAMGWYRQAPGKERELVAAITTRGGSTYYADSVKGRFTISRDNAKNTVYLQMNSLKPEDTAVYYCARDYSTYLRTAGDYWGQGTQVTVSS”, the “polyreactivity (PSR sort gate)” value was “low polyreactivity”.

With “QVQLVESGGVLVQAGGSLRLSCAASGSTFSVNVMGWSRQAPGKERELVAAINSGGSTDYADSVKGRLTISRDNAKNTVYLQMNSLKPEYTAVYYCNAYDIVIYDYWGQGTQVTVSS”, the “polyreactivity (PSR sort gate)” value is given as “low polyreactivity”.

Values taken from the nanobody polyreactivity screen of Harvey et al. (2022).
